Assay results from patent US20140004107A1 (published 2014).

Legend:
[1] = target: T1, soluble human ST2-FLAG His (human, UniProt Q01638 19-322, limits assumed); assay: AlphaScreen, biotinylated human IL-33 with human ST2-FH, antibody at 12.5 ug/ml
T1 construct: also called human ST2-FH; 6xhistidine tagged human ST2; not shown: FLAG and 6x histidine tags
T1 sequence: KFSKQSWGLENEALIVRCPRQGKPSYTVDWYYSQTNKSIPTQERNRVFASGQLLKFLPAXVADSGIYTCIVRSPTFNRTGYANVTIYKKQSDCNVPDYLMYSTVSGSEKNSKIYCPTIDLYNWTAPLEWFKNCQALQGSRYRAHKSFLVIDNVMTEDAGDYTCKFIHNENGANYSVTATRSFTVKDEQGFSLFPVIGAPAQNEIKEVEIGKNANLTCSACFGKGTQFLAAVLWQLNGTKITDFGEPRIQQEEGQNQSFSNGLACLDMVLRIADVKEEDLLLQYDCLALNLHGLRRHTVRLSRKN

[2] = target: T2, human ST2 on human primary cells (human, UniProt Q01638 19-556); assay: cell-based or functional assay
T2 sequence: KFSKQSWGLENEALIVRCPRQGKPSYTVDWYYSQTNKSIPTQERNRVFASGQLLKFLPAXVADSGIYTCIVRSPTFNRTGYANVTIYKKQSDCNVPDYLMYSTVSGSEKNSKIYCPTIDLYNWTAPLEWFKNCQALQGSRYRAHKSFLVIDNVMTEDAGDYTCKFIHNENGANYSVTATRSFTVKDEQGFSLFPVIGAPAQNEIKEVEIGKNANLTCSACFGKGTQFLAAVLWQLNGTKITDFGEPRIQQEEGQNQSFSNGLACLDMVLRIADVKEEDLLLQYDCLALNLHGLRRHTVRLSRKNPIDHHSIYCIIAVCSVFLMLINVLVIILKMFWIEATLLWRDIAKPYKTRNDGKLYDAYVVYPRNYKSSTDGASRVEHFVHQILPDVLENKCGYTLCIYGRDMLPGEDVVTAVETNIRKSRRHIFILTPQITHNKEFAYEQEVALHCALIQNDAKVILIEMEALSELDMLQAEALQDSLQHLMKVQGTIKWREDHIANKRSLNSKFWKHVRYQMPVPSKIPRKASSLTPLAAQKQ

[3] = target: T3, human ST2 (SPR analyte) (human, UniProt Q01638 19-322); assay: SPR Biacore 4000, kd at pH 5.5 against kd at pH 7.4
T3 construct: The ST2 reagent injected in SPR; leader is 1-18; also called hu ST2
T3 sequence: T1 sequence
Protocol: (§1) The association (5 min) rates at pH 7.4 and dissociation (10 min) rates at pH 5.5 and 7.4 were monitored at a flow rate of 30 uL/min. The reference subtracted data was fit to a 1:1 model in Scrubber.

[4] = target: T2, human ST2 on human primary cells; assay: cell-based or functional assay; remark: listed apart in the source
[5] = target: T4, cynomolgus monkey ST2 (SPR analyte) (cynomolgus monkey, UniProt Q01638 19-322 (human entry)); assay: SPR Biacore 3000, captured antibody, ST2 analyte, 25 C
T4 construct: The cyno ST2 reagent injected in SPR; leader is 1-18; also called cy ST2
T4 chain: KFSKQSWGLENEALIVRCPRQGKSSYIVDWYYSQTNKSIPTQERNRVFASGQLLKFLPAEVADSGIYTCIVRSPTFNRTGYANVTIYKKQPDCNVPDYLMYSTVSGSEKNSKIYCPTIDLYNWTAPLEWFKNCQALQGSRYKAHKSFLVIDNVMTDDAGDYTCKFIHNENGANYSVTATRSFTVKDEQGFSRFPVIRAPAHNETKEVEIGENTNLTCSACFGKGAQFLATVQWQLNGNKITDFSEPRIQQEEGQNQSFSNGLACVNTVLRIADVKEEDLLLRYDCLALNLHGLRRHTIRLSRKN

[6] = target: T3, human ST2 (SPR analyte); assay: as above
[7] = target: T5, cynomolgus monkey ST2 on cynomolgus CD4+ T cells (cynomolgus monkey, UniProt Q01638 19-556 (human entry)); assay: cell-based or functional assay
T5 chain: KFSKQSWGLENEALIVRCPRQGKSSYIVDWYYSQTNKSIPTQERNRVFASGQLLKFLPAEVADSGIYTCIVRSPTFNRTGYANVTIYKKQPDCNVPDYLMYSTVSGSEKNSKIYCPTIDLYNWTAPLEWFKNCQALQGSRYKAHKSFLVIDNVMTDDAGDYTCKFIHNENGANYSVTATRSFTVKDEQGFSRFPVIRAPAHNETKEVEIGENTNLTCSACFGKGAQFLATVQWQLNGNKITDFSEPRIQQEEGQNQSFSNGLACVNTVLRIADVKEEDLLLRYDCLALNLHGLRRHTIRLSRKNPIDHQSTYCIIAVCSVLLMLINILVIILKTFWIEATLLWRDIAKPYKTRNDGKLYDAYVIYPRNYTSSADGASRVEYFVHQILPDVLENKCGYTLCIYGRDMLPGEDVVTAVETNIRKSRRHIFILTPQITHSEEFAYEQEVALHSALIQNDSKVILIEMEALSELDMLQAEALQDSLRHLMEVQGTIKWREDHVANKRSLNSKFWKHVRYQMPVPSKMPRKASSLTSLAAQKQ

[8] = target: T6, biotinylated human ST2-Fc (human, UniProt Q01638 19-331, biotinylated); assay: AlphaScreen, IL-33 mediated association of biotinylated human ST2-Fc with human AcP-FH, antibody at 12.5 ug/ml
T6 construct: also called ST2-Fc fusion protein; not shown: human antibody Fc domain
T6 sequence: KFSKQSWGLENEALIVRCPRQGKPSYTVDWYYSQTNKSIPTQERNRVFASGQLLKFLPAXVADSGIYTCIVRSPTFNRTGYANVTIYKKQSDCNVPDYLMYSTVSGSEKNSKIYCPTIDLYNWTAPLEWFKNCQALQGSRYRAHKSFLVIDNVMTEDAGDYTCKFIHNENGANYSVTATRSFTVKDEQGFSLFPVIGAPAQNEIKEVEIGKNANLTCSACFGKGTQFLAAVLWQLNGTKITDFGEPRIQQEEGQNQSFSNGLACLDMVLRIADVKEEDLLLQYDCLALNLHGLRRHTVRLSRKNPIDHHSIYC
Protocol: In the second assay, antibodies were evaluated for the ability to inhibit the IL-33 mediated association of ST2 with the co-receptor AcP. […] The ST2/AcP AlphaScreen was conducted in 8 ul reactions in a 384 well optiplate (Perkin Elmer). […] After the addition of all assay components the plates were incubated overnight in the dark at room temperature. The next day the plates were read on a 2103 Envision multilable reader (Perkin Elmer) using the same parameters as above for the first assay.

[9] = target: T3, human ST2 (SPR analyte); assay: SPR Biacore 4000, association at pH 7.4, dissociation at pH 5.5 (estimated kd)
Protocol: as §1

[10] = target: T2, human ST2 on human primary cells; assay: cell-based or functional assay; remark: listed apart in the source
[11] = target: T3, human ST2 (SPR analyte); assay: SPR Biacore 4000, association at pH 7.4, dissociation at pH 7.4 (estimated kd)
Protocol: as §1

B1: Ab2 (antibody, human IgG2, kappa, V domains shown)
VH: EVQLVQSGAEVKKPGESLKISCKGSGYSFTNYWIGWVRQMPGKGLEWMGIIYPGNSDTRFSPSFQGQVTISADKSITTAYLQWSSLKASDTAMYYCARHGTSSDYYGLDVWGQGTTVTVSS
VL: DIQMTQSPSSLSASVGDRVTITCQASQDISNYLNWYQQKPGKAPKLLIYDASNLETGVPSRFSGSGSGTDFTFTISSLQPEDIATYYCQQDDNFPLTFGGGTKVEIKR
notes: fully human anti-ST2 antibody
B1 was tested, and the “% inhib ST2-IL33 AS 12.5 ug/ml” value [1] was 99.2%, the “IC50 of inhibition of human IL-33-induced IL-5 production from human CD4+ T cells” value [2] was 5.25 nM and the “pH 5.5/pH 7.4 koff fold change” value [3] was 8 fold. For the same binder, the “IC-50, human eosinophil IL-8 release assay (IL-33 and IL-3 stimulation)” value [4] was 52.8 pM, the Kd [5] was 0.0322 nM and the koff [5] was 1.16e-05 s⁻¹. The kon [5] was 360000 M⁻¹ s⁻¹, the Kd [6] was 0.0339 nM and the koff [6] was 1.13e-05 s⁻¹. The kon [6] was 333000 M⁻¹ s⁻¹, the “IC-50, cynomolgus monkey CD4+ T cell IFNγ release assay (IL-33, IL-2 and IL-12p70 stimulation)” value [7] was 79.5 pM and the “% inhib ST2-AcP AS 12.5 ug/ml” value [8] was 96.4%. The koff [9] was 0.000238 s⁻¹, the “IC50 of inhibition of IL-33-dependent IFN-γ response of human NK cells (IL-33 10 ng/mL plus IL-12)” value [10] was 0.0412 µg/mL and the koff [11] was 2.98e-05 s⁻¹.
